This is an account of results in patent US20240029824A1 (University of Washington, published 2024).

In assay [1] the target is T1, DHT03_variant_AB-4 chain B.
T1 chain: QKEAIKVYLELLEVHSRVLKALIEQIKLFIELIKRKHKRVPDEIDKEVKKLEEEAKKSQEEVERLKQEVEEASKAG
In words: native MS; loop-connectivity variant of DHT03, AB heterodimer.

The next assay addresses T2, DHT06 chain B.
T2 chain: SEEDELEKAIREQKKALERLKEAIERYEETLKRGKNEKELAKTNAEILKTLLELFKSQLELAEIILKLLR
In words: co-expression, IMAC, SEC, native MS; chains of one ABC heterotrimer. An excerpt: (§1) Genes encoding 85 heterotrimers in a tricistronic expression vector were obtained, and the proteins were expressed in E. coli and purified via IMAC with only one chain having the 6×His-tag. Nine of the designs (FIG. 3a) had monodisperse SEC peaks (FIG. 3b), were almost exclusively ABC by nMS, and had good SAXS fits to the design models (Table 7). […] Eight of the designs are parallel heterotrimers, while DHTO9 is an antiparallel heterotrimer. […] For 3 other designs, only the ABC heterotrimer was determined to form by nMS (when the respective SEC fraction was analyzed) but the heterotrimer SEC peak was preceded by soluble aggregate that would make building with these constructs difficult downstream. We explored the dependence of cooperativity on connectivity between the three chains by changing the positions of the loops across different helices in DHT03, while keeping the rest of the interface intact. […] The ability to sustain alternate loop closures increases the number of heteromeric building blocks available for future nanostructure assembly applications and may enable rigid fusion of functional domains to the different termini available.
(§2) Samples were analyzed by online buffer exchange native mass spectrometry (nMS) to evaluate sample purity and accurately determine oligomeric states⁴². Multiple instruments were used as the analyses were carried out over the duration of the protein design process. The mass spectrometers used for detection were a Q Exactive™ UHMR modified with a surface-induced dissociation device and an Exactive™ Plus EMR modified with a selection quadrupole and a surface-induced dissociation device (Thermo Fisher Scientific)⁴³. The liquid chromatography systems used for the buffer exchange include a Vanquish™ Duo UHPLC and a Dionex™ Ultimate 3000 HPLC (Thermo Fisher Scientific). A heated electrospray ionization source (HESI-II, Thermo Fisher Scientific) with a spray voltage of ˜4 kV was used for ionization.

A further assay addresses T3, DHT06 chain C.
T3 chain: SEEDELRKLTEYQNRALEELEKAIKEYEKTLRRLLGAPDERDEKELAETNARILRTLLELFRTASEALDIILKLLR
Described as above.
Text: as §1, §2

For assay [2], the target named is T4, DHT03_variant_AB-1 chain B.
T4 chain: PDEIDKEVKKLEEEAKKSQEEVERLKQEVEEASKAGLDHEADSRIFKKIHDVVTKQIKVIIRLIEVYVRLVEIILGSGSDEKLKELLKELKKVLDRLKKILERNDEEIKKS
The assay can be described thus: native MS; loop-connectivity variant of DHT03, AB heterodimer.

The target of assay [3] is T5, DHT03_variant_ABC-2 chain C.
T5 chain: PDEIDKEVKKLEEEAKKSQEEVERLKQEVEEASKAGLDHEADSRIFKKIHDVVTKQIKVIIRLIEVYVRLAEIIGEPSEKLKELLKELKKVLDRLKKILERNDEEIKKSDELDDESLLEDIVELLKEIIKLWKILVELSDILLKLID
The assay can be described thus: native MS; loop-connectivity variant of DHT03, chains of one ABC heterotrimer.

In assay [4] the target is T6, DHT03_variant_ABC-2 chain B.
T6 chain: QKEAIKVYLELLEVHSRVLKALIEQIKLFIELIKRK
The assay is described as above.

Assay [5] concerns the target T7, DHT03_variant_AB-2 chain B.
T7 chain: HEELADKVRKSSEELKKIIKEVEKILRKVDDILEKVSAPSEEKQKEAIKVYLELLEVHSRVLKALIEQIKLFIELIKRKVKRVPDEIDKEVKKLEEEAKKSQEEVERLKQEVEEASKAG
The assay can be described thus: native MS; loop-connectivity variant of DHT03, AB heterodimer.

Another assay addresses T8, DHT08 chain C.
T8 chain: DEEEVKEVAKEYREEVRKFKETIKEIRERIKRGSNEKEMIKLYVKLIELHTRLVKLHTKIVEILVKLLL
The assay can be described thus: co-expression, IMAC, SEC, native MS; chains of one ABC heterotrimer.
Text: as §1, §2

A further assay deals with T9, DHT08 chain B.
T9 chain: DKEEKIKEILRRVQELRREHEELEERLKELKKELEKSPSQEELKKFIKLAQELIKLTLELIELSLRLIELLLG
The assay is described as above.
Text: as §1, §2

Assay [6] has as its target T10, DHT03_2arm_A21/B21/C long chain B.
T10 chain: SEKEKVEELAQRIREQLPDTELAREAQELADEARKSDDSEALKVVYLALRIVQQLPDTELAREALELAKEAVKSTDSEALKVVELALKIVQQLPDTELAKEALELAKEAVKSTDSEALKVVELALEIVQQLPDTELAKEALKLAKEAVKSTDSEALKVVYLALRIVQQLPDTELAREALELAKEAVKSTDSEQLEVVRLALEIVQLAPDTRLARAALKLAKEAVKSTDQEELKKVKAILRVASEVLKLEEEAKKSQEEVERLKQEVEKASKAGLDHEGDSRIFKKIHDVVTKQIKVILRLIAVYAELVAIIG
In words: co-expression, SEC, native MS, SAXS; chains of one ABC heterotrimer.

In assay [7] the target is T11, DHT03 chain C (SEQ ID NO: 59).
T11 chain: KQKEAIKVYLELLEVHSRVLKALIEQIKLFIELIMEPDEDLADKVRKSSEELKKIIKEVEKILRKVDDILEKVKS
The assay can be described thus: X-ray crystal structure, 3.35 A. The method, then:
Purified DHT03_2arm_A21/B21/C (long) protein at a concentration of 41 mg/mL was used to conduct sitting drop, vapor-diffusion crystallization trials using the JCSG Core I-IV screens (NeXtal Biotechnologies). Crystals of DHT03_2arm_A21/B21/C long grew from drops consisting of 100 nL protein plus 100 nL of a reservoir solution consisting of 2M (NH4)2SO4, 0.1M sodium acetate pH4.6 at 18° C., and were cryoprotected by supplementing the reservoir solution with 2.2M sodium malonate pH5. Native diffraction data was collected at APS beamline APS-23-ID-B, indexed to P1 and reduced using XDS⁴⁸. The structure was phased by molecular replacement using Phaser™. The chain A of a set of ˜49 lowest energy predicted models from Rosetta™ were used as search models. Several of these models gave clear solutions. Chain B and Chain C were fitted manually in Coot™ and rigid body refinement by Phenix™. The following model building and refinement were done by Coot™ and Phenix™.

A further assay concerns the target T12, DHT09 chain C.
T12 chain: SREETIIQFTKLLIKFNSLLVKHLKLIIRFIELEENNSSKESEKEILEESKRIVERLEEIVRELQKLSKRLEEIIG
The assay can be described thus: co-expression, IMAC, SEC, native MS; chains of one ABC heterotrimer.
Text: as §1, §2

For the next assay, the target named is T13, DHT09 chain B.
T13 chain: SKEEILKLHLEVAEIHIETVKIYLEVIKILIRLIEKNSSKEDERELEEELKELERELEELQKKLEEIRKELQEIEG
The description is as above.
Text: as §1, §2

The target in assay [8] is T14, DHT03_variant_ABCD-1 chain D.
T14 chain: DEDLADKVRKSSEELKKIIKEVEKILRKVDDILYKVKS
The assay can be described thus: native MS; loop-connectivity variant of DHT03, chains of one ABCD heterotetramer.

In assay [9] the target is T11, DHT03 chain C (SEQ ID NO: 59). In words: tricistronic expression, SEC, native MS; chains of one ABC heterotrimer.
Text: as §1
Samples were analyzed by online buffer exchange native mass spectrometry (nMS) to evaluate sample purity and accurately determine oligomeric states⁴². […]

In assay [10] the target is T15, DHT03_variant_AB-3 chain B.
T15 chain: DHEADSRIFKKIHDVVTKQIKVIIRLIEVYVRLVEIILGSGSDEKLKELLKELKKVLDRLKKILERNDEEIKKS
The assay can be described thus: native MS; loop-connectivity variant of DHT03, AB heterodimer.

The next assay concerns the target T16, DHT07 chain C.
T16 chain: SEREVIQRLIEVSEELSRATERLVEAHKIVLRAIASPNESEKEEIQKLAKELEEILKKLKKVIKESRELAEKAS
In words: co-expression, IMAC, SEC, native MS; chains of one ABC heterotrimer.
Text: as §1, §2

For another assay, the target named is T17, DHT07 chain B.
T17 chain: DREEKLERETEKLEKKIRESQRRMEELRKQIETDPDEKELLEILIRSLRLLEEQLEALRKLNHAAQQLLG
The assay is described as above.
Text: as §1, §2

A further assay addresses T18, DHT10 chain B.
T18 chain: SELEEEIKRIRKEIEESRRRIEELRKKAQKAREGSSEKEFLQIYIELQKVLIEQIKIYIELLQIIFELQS
Described as above.
Text: as §1, §2

The next assay has as its target T19, DHT10 chain C.
T19 chain: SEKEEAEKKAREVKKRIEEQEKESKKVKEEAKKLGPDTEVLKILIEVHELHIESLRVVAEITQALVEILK
The description is as above.
Text: as §1, §2

B1: DHT03_variant_AB-4 chain A (designed binder)
chain: DHEADSRIFKKIHDVVTKQIKVIIRLIEVYVRLVEIILGSGSDEKLKELLKELKKVLDRLKKILERNDEEIKKSDELDDESLLEDIVELLKEIIKLWKILVELSDILLKLIGGDDKVRKSSEELKKIIKEVEKILRKVDDILYKVS
As to B1, the binding result in assay [1] is recorded as “binds”.

B2: DHT06 chain A (designed binder)
chain: DEKELAKTNAEILKTLLELFEAESRLQEIILKLLERPDEKEEDELKRALERLKEALERLEEAIKRYEETLKRLL
Consider B2, for which the binding result with DHT06 chain B and with DHT06 chain C was “binds” each time.

B3: DHT03_variant_AB-1 chain A (designed binder)
chain: DESLLEDIVELLKEIIKLWKILVELSDILLKLIGGDDKVRKSSEELKKIIKEVEKILRKVDDILYKVSAPSEEKQKEAIKVYLELLEVHSRVLKALIEQIKLFIELIKR
In the case of B3, in assay [2], the binding result was “binds”.
As to HEELADEVRKSSEELKKIIEEVEKILRKVDDILYKVG (designed binder) [DHT03_variant_ABC-2 chain A], the binding result in assay [3] and in [4] was “binds” each time.

B4: DHT03_variant_AB-2 chain A (designed binder)
chain: DHEADSRIFKKIHDVVTKQIKVIIRLIEVYVRLVEIILGSGSDEKLKELLKELKKVLDRLKKILERNDEEIKKSDELDDESLLEDIVELLKEIIKLWKILVELSDILLKLID
For B4, the binding result in assay [5] is given as “binds”.

B5: DHT08 chain A (designed binder)
chain: SKEEIEKELKKLKKELEELKREIEKSTKKLEEVRGSNSEKELIQIIKEQIEISERLLEISTRLLEIIIKLLG
As for B5, the binding result in the assay with DHT08 chain C and with DHT08 chain B was “binds” throughout.

B6: DHT03_2arm_A21/B21/C long chain A (designed binder)
chain: SEKEKVEELAQRIREQLPDTELAREAQELADEARKSDDSEALKVVYLALRIVQQLPDTELAREALELAKEAVKSTDSEALKVVELALKIVQQLPDTELAKEALKLAKEAVKSTDSEALKVVELALEIVQQLPDTELAKEALELAEEAVKSTDSEALKVVKLALEIVQQLPDTELAREALELAKEAVKSTDSEALKVVYLALRIVQQLPDTELARLALELAKKAVEMTAQEVLEIARAALKAAQAFPNTELAELMLRLAEVAARVMKELERNDEEIKKSDELDDESLLEDIVELLKEIIKLWKILVEVSDVMLKLIS
As to B6, the binding result in [6] and in [7] was “binds” each time.

B7: DHT09 chain A (designed binder)
chain: SEDEDLIRSVRVIQKSVEIILEMVKIIQELLKSTSEEELKELLKKLKRLIEKLEELLRQYEELLKKIKG
Consider B7, for which the binding result with DHT09 chain C and with DHT09 chain B was “binds” throughout.

B8: DHT03 chain A (designed binder)
chain: PEEEKLKELLKELKKVLDRLKKILERNDEEIKKSDELDDESLLEDIVELLKEIIKLWKILVELSDILLKLIS
With B8, the binding result in [8] and in [9] was “binds” each time.

B9: DHT03_variant_AB-3 chain A (designed binder)
chain: DESLLEDIVELLKEIIKLWKILVELSDILLKLIGGDDKVRKSSEELKKIIKEVEKILRKVDDILYKVSAPSEEKQKEAIKVYLELLEVHSRVLKALIEQIKLFIELIKRKHKRVPDEIDKEVKKLEEEAKKSQEEVERLKQEVEEASKAG
For the molecule B9, the binding result in assay [10] was “binds”.

B10: DHT07 chain A (designed binder)
chain: SEKELIQLYVEAQELYAEAFELQVEIFKLLVKILSANSPKDEKEKIEKRIEEVQKRIKEIQERLQEIQKRLEEAG
In the case of B10, the binding result with DHT07 chain C and with DHT07 chain B was “binds” each time.

B11: DHT10 chain A (designed binder)
chain: SEEEELKKLQEEIKKLKKQVERLEKESKELEKRLEKSPSEEIAKELLRITAELVEISEELAEATKRLLEIAG
For the molecule B11, the binding result with DHT10 chain B and in the assay with DHT10 chain C was “binds” each time.
